According to patent publication US12692524B2, “Sialyltransferases and their use in producing sialylated oligosaccharides” (Chr. Hansen A/S, priority 2017, dated 2026):

B1: SiaT13: sialyltransferase of Streptococcus agalactiae, acc. AB050723, SEQ ID NO: 17 (protein, listed as Streptococcus agalactiae)
chain: MTNRKIYVCHTLYHLLICLYKEEIYSNLEIILSSSIPDVDNLEKKLKSKTINIHILEESSGESEELLSVLKDAGLSYSKFDSNCFIFNDATPIGRTLIKHGIYYNLIEDGLNCFTYSIFSQKLWKYYVKKYILHKIQPHGFSRYCLGIEVNSLVNLPKDPRYKKFIEVPRKELFDNVTEYQKEMAINLFGAVRVSIKSPSVLVLTQPLSIDKEFMSYNNKIETSEEQFNFYKSIVNEYINKGYNVYLKVHPRDVVDYSKLPVELLPSNVPMEIIELMLTGRFECGITHSSTALDFLTCVDKKITLVDLKDIK
B2: SiaT2: sialyltransferase of Campylobacter jejuni strain OH4384, acc. AF130466, SEQ ID NO: 10 (protein, listed as Campylobacter jejuni)
chain: MTRTRMENELIVSKNMQNIIIAGNGPSLKNINYKRLPREYDVFRCNQFYFEDKYYLGKKIKAVFFNPGVFLQQYHTAKQLILKNEYEIKNIFCSTFNLPFIESNDFLHQFYNFFPDAKLGYEVIENLKEFYAYIKYNEIYFNKRITSGVYMCAIAIALGYKTIYLCGIDFYEGDVIYPFEAMSTNIKTIFPGIKDFKPSNCHSKEYDIEALKLLKSIYKVNIYALCDDSILANHFPLSININNNFTLENKHNNSINDILLTDNTPGVSFYKNQLKADNKIMLNFYNILHSKDNLIKFLNKEIAVLKKQTTQRAKARIQNHLSYKLGQALIINSKSVLGFLSLPFIILSIVISHKQEQKAYKFKVKKNPNLALPPLETYPDYNEALKEKECFTYKLGEEFIKAGKNWYGEGYIKFIFKDVPRLKREFEKGE
B3: SiaT1: sialyltransferase of Neisseria meningitidis, acc. U60660, SEQ ID NO: 5 (protein, listed as Neisseria meningitidis)
chain: MGLKKACLTVLCLIVFCFGIFYTFDRVNQGERNAVSLLKEKLFNEEGEPVNLIFCYTILQMKVAERIMAQHPGERFYVVLMSENRNEKYDYYFNQIKDKAERAYFFHLPYGLNKSFNFIPTMAELKVKSMLLPKVKRIYLASLEKVSIAAFLSTYPDAEIKTFDDGTGNLIQSSSYLGDEFSVNGTIKRNFARMMIGDWSIAKTRNASDEHYTIFKGLKNIMDDGRRKMTYLPLFDASELKTGDETGGTVRILLGSPDKEMKEISEKAAKNFKIQYVAPHPRQTYGLSGVTTLNSPYVIEDYILREIKKNPHTRYEIYTFFSGAALTMKDFPNVHVYALKPASLPEDYWLKPVYALFTQSGIPILTFDDKN
B4: SiaT11: sialyltransferase of Photobacterium damselae JT0160, acc. BAA25316, SEQ ID NO: 31 (protein, listed as Photobacterium damsela)
chain: MKKILTVLSIFILSACNSDNTSLKETVSSNSADVVETETYQLTPIDAPSSFLSHSWEQTCGTPILNESDKQAISFDFVAPELKQDEKYCFTFKGITGDHRYITNTTLTVVAPTLEVYIDHASLPSLQQLIHIIQAKDEYPSNQRFVSWKRVTVDADNANKLNIHTYPLKGNNTSPEMVAAIDEYAQSKNRLNIEFYTNTAHVFNNLPPIIQPLYNNEKVKISHISLYDDGSSEYVSLYQWKDTPNKIETLEGEVSLLANYLAGTSPDAPKGMGNRYNWHKLYDTDYYFLREDYLDVEANLHDLRDYLGSSAKQMPWDEFAKLSDSQQTLFLDIVGFDKEQLQQQYSQSPLPNFIFTGTTTWAGGETKEYYAQQQVNVINNAINETSPYYLGKDYDLFFKGHPAGGVINDIILGSFPDMINIPAKISFEVLMMTDMLPDTVAGIASSLYFTIPADKVNFIVFTSSDTITDREEALKSPLVQVMLTLGIVKEKDVLFWADHKVNSMEVAIDEACTRIIAKRQPTASDLRLVIAIIKTITDLERIGDVAESIAKVALESFSNKQYNLLVSLESLGQHTVRMLHEVLDAFARMDVKAAIEVYQEDDRIDQEYESIVRQLMAHMMEDPSSIPNVMKVMWAARSIERVGDRCQNICEYIIYFVKGKDVRHTKPDDFGTMLD
B5: SiaT10: sialyltransferase of Pasteurella multocida PM70, acc. AAK02272, SEQ ID NO: 4 (protein, listed as Pasteurella multocida)
chain: MKTITLYLDPASLPALNQLMDFTQNNEDKTHPRIFGLSRFKIPDNIITQYQNIHFVELKDNRPTEALFTILDQYPGNIELDIHLNIAHSVQLIRPILAYRFKHLDRVSIQRLNLYDDGSMEYVDLEKEENKDISAEIKQAEKQLSHYLLTGKIKFDNPTIARYVWQSAFPVKYHFLSTDYFEKAEFLQPLKEYLAENYQKMDWTAYQQLTPEQQAFYLTLVGFNDEVKQSLEVQQAKFIFTGTTTWEGNTDVREYYAQQQLNLLNHFTQAGGDLFIGDHYKIYFKGHPRGGEINDYILNNAKNITNIPANISFEVLMMTGLLPDKVGGVASSLYFSLPKEKISHIIFTSNKQVKSKEDALNNPYVKVMRRLGIIDESQVIFWDSLKQL
B6: SiaT14: sialyltransferase of Haemophilus-somnus-2336, acc. ACA31578, SEQ ID NO: 26 (protein, listed as Haemophilus somnus)
chain: MFREDNMNLIICCTPLQVIIAEKIIERYPEQKFYGVMLESFYNDKFDFYENKLKHLCHEFFCIKIARFKLERYKNLLSLLKIKNKTFDRVFLANIEKRYIHIILSNIFFKELYTFDDGTANIAPNSHLYQEYDHSLKKRITDILLPNHYNSNKVKNISKLHYSIYRCKNNIIDNIEYMPLFNLEKKYTAQDKSISILLGQPIFYDEEKNIRLIKEVIAKFKIDYYFPHPREDYYIDNVSYIKTPLIFEEFYAERSIENSIKIYTFFSSAVLNIVTKENIDRIYALKPKLTEKAYLDCYDILKDFGIKVIDI

How the values were obtained:
[1] = In vitro sialylation of LNT by protein extracts, LST-a/-b quantified by LC-MS/MS; type: biochemical
Protocol: Escherichia coli BL21(DE3) harbouring plamids encoding for 100 sialyltransferases were grown at 30° C. in 100 ml shake flasks filled with 20 ml of 2YT medium supplemented with ampicillin 100 μg ml^−1. When the cultures reached an OD600 of 0.1 to 0.3, gene expression was induced by addition of 0.3 mM IPTG and the incubation was continued for 12 to 16 hours. Cells were harvested by centrifugation and mechanically disrupted in a defined volume of 50 mM Tris-HCl pH7.5 using glass beads. The protein extract was kept on ice until the assay started. The in vitro assay was carried out in a total volume of 25 μl including 50 mM Tris-HCl pH7.5, 5 mM MgCl2, 10 mM CMP-Neu5Ac and 5 mM LNT. The assay started with the addition of 3 μl protein extract and continued for 16 hours. Product formation was determined by mass spectrometry.
Mass spectrometry analysis was performed by MRM (multiple reaction monitoring) using a LC Triple-Quadrupole MS detection system. Precursor ions are selected and analyzed in quadrupole 1, fragmentation takes place in the collision cell using argon as CID gas, selection of fragment ions is performed in quadrupole 3. Chromatographic separation of lactose, 3′-Sialyllactose and 6′-Sialyllactose after dilution of culture supernatant 1:100 with H2O (LC/MS Grade), was performed on a XBridge Amide HPLC column (3.5 μm, 2.1×50 mm (Waters, USA) with a XBridge Amide guard cartridge (3.5 μm, 2.1×10 mm) (Waters, USA). Column oven temperature of the HPLC system was 50° C. The mobile phase was composed of acetonitrile:H2O with 10 mM ammonium acetate. A 1 μl sample was injected into the instrument; the run was performed for 3.60 min with a flow rate of 400 μl/min. 3′-Sialyllactose and 6′-Sialyllactose were analyzed by MRM in ESI positive ionization mode. The mass spectrometer was operated at unit resolution. Sialyllactose forms an ion of m/z 656.2 [M+Na]. The precursor ion of Sialyllactose was further fragmented in the collision cell into the fragment ions m/z 612.15, m/z 365.15 and m/z 314.15. Collision energy, Q1 and Q3 Pre Bias were optimized for each analyte individually. Chromatographic separation of lactose, LNT-II, LNT and LST-a or -b after dilution of particle-free biocatalysis-reaction or crude extract, respectively, 1:50 with H2O (LC/MS Grade), was performed on a XBridge Amide HPLC column (3.5 μm, 2.1×50 mm (Waters, USA) with a XBridge Amide guard cartridge (3.5 μm, 2.1×10 mm) (Waters, USA). Column oven was run at 35° C. The mobile phase was composed of acetonitrile:H2O with 0.1% ammonium hydroxide. A 1 μl sample was injected into the instrument; the run was performed for 3.50 min with a flow rate of 300 μl/min. Lactose, LNT-II, LNT as well as LST-a and -b were analyzed by MRM in ESI negative ionization mode. The mass spectrometer was operated at unit resolution. Lactose forms an ion of m/z 341.00 [M−H]. The precursor ion of Lactose was further fragmented in the collision cell into the fragment ions m/z 179.15, m/z 161.15 and m/z 101.05. LNT-II forms an ion of m/z 544.20 [M−H]. The precursor ion of LNT-II was further fragmented into the fragment ions m/z 382.10, m/z 161.00 and m/z 112.90. LNT forms an ion of m/z 706.20 [M−H]. The precursor ion of LNT was further fragmented into the fragment ions m/z 382.10, m/z 202.10 and m/z 142.00. LST-a and -b forms an ion of m/z 997.20 [M−H]. The precursor ion of LST-a and-b was further fragmented into the fragment ions m/z 290.15, m/z 202.15 and m/z 142.15. Collision energy, Q1 and Q3 Pre Bias were optimized for each analyte individually. Quantification methods were established using commercially available standards (Carbosynth, Compton, UK).
Twenty eight genes were identified to produce LST-a whereas only 6 enzymes synthesized LST-b. […] Irrespectively of the protein overexpression level, sialyltransferases that produced best were selected for determination of Km and Vmax.

[2] = In vivo screening in E. coli #1363/#1730 with lactose as acceptor, sialyllactose identified by TLC; type: cell-based, Escherichia coli BL21(DE3); conditions: for Production of sialyllactose in-vivo: 1.5 mM lactose, 72 to 96 hours, qualitative via TLC; for Described activity confirmed in the lactose screening: in words
Protocol: Escherichia coli BL21(DE3) #1363 and #1730 harbouring plasmids encoding for 100 sialyltransferases were grown at 30° C. in 100 ml shake flasks filled with 20 ml of mineral salts medium (Samain et al., J. Biotech. 1999, 72:33-47) supplemented with 2% (wt/vol) glucose, ampicillin 100 μg ml^−1, kanamycin 15 μg ml^−1 and zeocin 40 μg ml^−1. When the cultures reached an OD600 of 0.1 to 0.3, gene expression was induced by addition of 0.3 mM IPTG. After an incubation for one hour, 1.5 mM lactose was added to #1363 cultures whereas 1.5 mM lactose as well as 1.5 mM sialic acid was added to #1730 cultures. The incubation continued for 72 to 96 hours. Then, cells were harvested by centrifugation and mechanically disrupted in a defined volume using glass beads. Subsequently, samples were applied to thin layer chromatography (TLC) on Silica Gel 60 F254 (Merck KGaA, Darmstadt, Germany). A mixture of butanol:acetone:acetic acid:H2O (35/35/7/23 (v/v/v/v)) was used as mobile phase. For detection of the separated substances, the TLC plate was soaked with thymol reagent (0.5 g thymol solved in 95 ml ethanol, 5 ml sulfuric acid added) and heated.
In the entire screening, thirty two genes were identified to encode for α-2,3-sialyltransferases, thus producing 3′-SL. 19 enzymes synthesized 6′-SL and were depicted as α-2,6-sialyltransferases. An α-2,3- as well as an α-2,6-sialyltransferase activity could only be observed for 3 enzymes. […] The screening appeared highly accurate since the described activities of extensively characterized sialyltransferases, e. g. […] Regarding the product formation, the experimental setting allowed a semi-quantitative comparison of the screened enzymes. But to achieve deeper knowledge about their kinetic properties, the 3 potentially best performing α-2,3- and α-2,6-sialyltransferases were applied to in vitro assays.

[3] = 5 mM LNT, 10 mM CMP-Neu5Ac, 16 hours, LC-MS/MS, relative quantity, n.d.: not detectable

Molecule	Relative efficacy of sialyltransferases regarding in-vitro production of sialyllacto-N-tetraoses: LST-a [1, 3]	Production of sialyllactose in-vivo [2]	Described activity to sialylate LNT verified ([1]; in words)	Described activity confirmed in the lactose screening [2]	Relative efficacy of sialyltransferases regarding in-vitro production of sialyllacto-N-tetraoses: LST-b [1, 3]
B1	24	3′-SL			
B2	749	3′-SL			
B3	2.98 × 10^3	3′-SL	could be verified	could be confirmed	
B4				could be confirmed	13
B5	3.18 × 10^3	3′-SL, 6′-SL			
B6	2	3′-SL			
